Common to all, as to experiment: SPR; BIACORE 2000; biotinylated ligand on a streptavidin-modified CM5 chip (about 200 RU); receptor ectodomain as analyte at 1, 2, 3, 5, 10, 20 and 50 uM; HBS500 (10 mM HEPES pH 7.4, 500 mM NaCl, 3.4 mM EDTA, 0.005% P20); apparent KD from the dose dependence of equilibrium binding
Experiment [1] addresses BMP-2 A86P.
The target in experiment [2] is BMP-2 L100K.
Experiment [3] addresses BMP-2 N102D.
For experiment [4], the target named is BMP-2 S85R/A86P.
The target of experiment [5] is BMP-2 S85R.
The target in experiment [6] is BMP-2 variant L100K/N102D.

In the case of “ActR-II receptor ectodomain (from UniProt P27037 20-135)”, the rel. KD (against wildtype BMP-2 from E. coli with the same receptor) in experiment [1] came out at 1.5 fold; in experiment [2] it was 0.84 fold; in experiment [3] it was 3.6 fold; in experiment [4] it was 1.3 fold; in experiment [5], 0.85 fold; in experiment [6] it was 0.29 fold.

The values are drawn from publication PMC1802081.
